Experimental data: US20040048289A1, “Magnetic particle membrane-specific protein” (priority 2000, published 2004)

Columns and labels:
[1] = GTPase activity (hydrolysis of 32P-labelled GTP, PEI cellulose TLC, bioimaging analyzer); assay type: biochemical; conditions: immunoprecipitate on anti-HA antibody sepharose, one hour at 30° C., FIG. 5
[2] = GTP binding ability (UV cross-linking with [γ-35S] GTP, SDS-PAGE, autoradiography); conditions: [γ-35S] GTP 1 μM, one hour at 30° C., protein expressed in E. coli DH5α
Method: As Mms 16 of the present invention contained many GTP binding proteins and homologous sequences, the GTP binding ability of Mms 16 was investigated as follows. 1 μl of [γ-^35S] GTP (1 μM; 1,250 Ci/mmol) and cell homogenate were mixed in 20 μl binding buffer (50 mM Tris-HCl, 5 mM MgCl2, 1 mM EDTA, 0.3% Tween 20), and kept still for one hour at 30° C. Then, the obtained reaction mixture was kept still on ice for 20 minutes, and ultraviolet bridging was performed between GTP and protein by using an ultraviolet lamp. Subsequently, ½ amount of 3× sample buffer was added to the reaction solution to denature the protein, and sepharose beads were precipitated by centrifugation, supernatant was loaded onto 15% (w/v) acrylamide gel. After SDS-PAGE, the gel was dried and wrapped in Saran Wrap, and detection was conducted by autoradiography.
As a result, in addition to the protein that binds to [γ-^35S] […] GTP. In case where [α-^32P] GTP is used, [α-^32P] GTP binding type of GTPase is not observed because GDP also dissociates from GTPase when phosphoric acid in position γ dissociates from GTP binding type GTPase by hydrolysis activity. However, in case where [γ-^35S] GTP is used, it is possible to show the presence of GTPase because S is binding to 5′ of phosphoric acid in position γ, and therefore, hydrolysis is not caused by GTPase.

Row | GTP binding ability [2] | Molecule | GTPase activity [1]
1 | – | Mms 16-HA fusion protein: Mms 16 fused at C-terminal with hemagglutinin epitope tag (YPYDVPDYA), expressed in E. coli from pTrc 16HA | [α-^32P] GTP was hydrolyzed
2 | apparently bind to [γ-^35S] GTP | Mms 16: 16 kDa protein specific to a magnetic particle membrane of Magnetospirillum sp. AMB-1, amino acid sequence Seq. ID No. 2 (protein, listed as Magnetospirillum sp., X: residue not identified in the source, 16 kDa protein specific to a magnetic particle membrane of Magnetospirillum sp; ID No. 2) MAAKQTEQFFDFDVAKYLGDFKVPGVDVETIVANQRKNIEALTQANKLAFEGLQNVVKRQVEILRQTMDEVAQVSKDFAEPGSPQGKAAKQAEFAKDAFERALXNARELAEMIAKANSEAFDLLNKXFTQSLDEAREVFTKAGKK | has GTPase activity
